± gives the standard error.
B1: library; numbered along this chain (parent)
chain: MATDAALRRLLRLHRTEIAVAVDSAFPLLHALADHDVVPEDKFQETLHLKEKEGCPQAFHALLSWLLTQDSTAILDFWRVLFKDYNLERYGRLQPILDSFPKDVDLSQPRKGRKPPAVPKALVPPPRLPTKRKASEEARAAAPAALTPRGTASPGSQLKAKPPKKPESSAEQQRLPLGNGIQTMSASVQRAVAMSSGDVPGARGAVEGILIQQVFESGGSKKCIQVGGEFYTPSKFEDSGSGKNKARSSSGPKPLVRAKGAQGAAPGGGEARLGQQGSVPAPLALPSDPQLHQKNEDECAVCRDGGELICCDGCPRAFHLACLSPPLREIPSGTWRCSSCLQATVQEVQPRAEEPRPQEPPVETPLPPGLRSAGEEVRGPPGEPLAGMDTTLVYKHLPAPPSAAPLPGLDSSALHPLLCVGPEGQQNLAPGARCGVCGDGTDVLRCTHCAAAFHWRCHFPAGTSRPGTGLRCRSCSGDVTPAPVEGVLAPSPARLAPGPAKDDTASHEPALHRDDLESLLSEHTFDGILQWAIQSMARPAAPFPS

Variants of: B1
Test: AIRE transcriptional activation functional score (insulin promoter-GFP; nonsense median 0, synonymous median 1) (normalised score); higher = higher AIRE activity (more reporter activation)
Settings: with insulin promoter-GFP reporter in HEK293
Procedure: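 Deep mutational scan of full-length human AIRE (codon-optimized cDNA, DT-POPCode NNN libraries over three regions) integrated at a Bxb1 landing pad in HEK293 cells carrying an insulin core promoter-GFP reporter at a Flp-In site. Cells were sorted for the top 10% GFP about 14 days after transfection. Variant frequency log-ratios (select vs non-select, TileSeq) were rescaled so that the nonsense median is 0 and the synonymous median is 1, then averaged over biological replicates.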

Row | Variant | AIRE transcriptional activation functional score
1 | L291D | 0.351 ± 0.24
2 | G387P | 0.291 ± 0.23
3 | C419F | 1.64 ± 0.15
4 | C419S | 0.615 ± 0.4
5 | N86Q | -0.241 ± 0.33
6 | C337S | 1.33 ± 0.29
7 | G306L | 0.492 ± 0.2
8 | G306N | 1.18 ± 0.17
9 | S196M | 0.982 ± 0.072
10 | I96G | -0.689 ± 0.54
11 | L175W | 1.8 ± 0.038
12 | D515K | -0.501 ± 0.17
13 | A193T | 1.15 ± 0.4
14 | S249W | 1.81 ± 0.072
15 | R12W | -0.0189 ± 0.097
16 | R12E | -0.463 ± 0.9
17 | Q182W | 0.0615 ± 0.37
18 | Q182R | 1.3 ± 0.36
19 | S187H | 1.28 ± 0.17
20 | L397I | 0.407 ± 0.24
21 | K164H | 1.27 ± 0.18

Row | Variant | AIRE transcriptional activation functional score
22 | H454V | 0.0829 ± 0.3
23 | A429Q | 1.32 ± 0.12
24 | A452K | 0.517 ± 0.12
25 | C314H | 0.752 ± 0.035
26 | D389Q | -0.15 ± 0.18
27 | G313T | 0.676 ± 0.23
28 | F318Y | 1.07 ± 0.11
29 | F318P | 1.21 ± 0.16
30 | K259G | -0.585 ± 0.16
31 | K259C | 1.33 ± 0.045
32 | K259P | 0.82 ± 0.18
33 | K259T | 0.966 ± 0.32
34 | E216L | 1.42 ± 0.084
35 | G408N | 0.674 ± 0.45
36 | G408V | 0.743 ± 0.1
37 | A138T | 0.99 ± 0.51
38 | A138Q | 0.334 ± 0.66
39 | P233F | -0.0788 ± 0.3
40 | P233T | 1.07 ± 0.048
41 | A317Q | -0.307 ± 0.064
42 | L11V | 0.213 ± 0.5

Row | Variant | AIRE transcriptional activation functional score
43 | D4Y | 0.616 ± 0.39
44 | L158Q | 0.833 ± 0.56
45 | A386I | 0.514 ± 0.21
46 | A386G | 0.732 ± 0.35
47 | G498Y | 1.2 ± 0.14
48 | G498H | 1.42 ± 0.036
49 | E354Q | 0.948 ± 0.093
50 | E354V | 1.08 ± 0.095
51 | G267T | 1.8 ± 0.042
52 | S338N | 1.3 ± 0.079
53 | Q262N | 1.13 ± 0.15
54 | Q262F | 1.61 ± 0.12
55 | E237H | 0.943 ± 0.14
56 | G369Y | 0.617 ± 0.046
57 | P109Q | 0.797 ± 0.078
58 | T441G | 0.478 ± 0.33
59 | T441Q | 1.35 ± 0.054
60 | C472D | -0.251 ± 0.19
61 | L81E | 0.209 ± 0.3
62 | W65L | 0.2 ± 0.59
63 | S402C | 1.1 ± 0.12

Row | Variant | AIRE transcriptional activation functional score
64 | S402G | 1.34 ± 0.22
65 | S411A | 1.04 ± 0.13
66 | P380K | 0.944 ± 0.23
67 | L308R | 0.932 ± 0.23
68 | L308N | 0.45 ± 0.078
69 | Q275S | 0.826 ± 0.52
70 | Q275L | 1.03 ± 0.14
71 | P200M | 1.52 ± 0.087
72 | P200T | 0.911 ± 0.43
73 | P200Y | 0.0754 ± 0.17
74 | A160Y | 1.08 ± 0.36
75 | A403F | 1.09 ± 0.12
76 | A117R | 0.501 ± 0.51
77 | E167T | 0.707 ± 0.28
78 | P422H | 0.986 ± 0.049
79 | L93N | 0.43 ± 0.13
80 | K114H | 0.207 ± 0.11
81 | K114D | 0.131 ± 0.23
82 | K159A | 0.394 ± 0.53
83 | A541N | 0.974 ± 0.061
84 | S250R | 0.0524 ± 0.41
